# Test results: US20170101466A1
# Columns and labels:
# [1] = biological target: soluble human BLyS (human) (UniProt Q9Y275); experiment: cell-based or functional assay
# [2] = biological target: soluble mouse BLyS (mouse) (UniProt Q9WU72); experiment: cell-based or functional assay
hBLyS B-cell proliferation (IC50) [1],"IC50 hBLyS stimulated, mouse splenic B-cell proliferation [1] [ng/mL]","IC50 mBLyS stimulated, mouse splenic B-cell proliferation [2] [ng/mL]",Binder
12,–,–,"14F11 IgG expressed in HEK293 cells (antibody, V domains shown) VH: QVQLVQSGAEVKKPGSSVKVSCKASGGTFSSYAISWVRQAPGQGLEWMGRINPNSGGTNYAQKFQGRVTMTRDTSISTAYMELSRLRSDDTFVYYCAREGYDFLTGYTLGGMDVWGQGTTVTVSS VL: QSVLTQPPSVSAAPGQKVTISCSGSSSNIGNNYVSWYQQLPGTAPKLLIYDNNKRPSGIPDRFSASKSGTSASLAISGLQAEDEADYYCQSYDSSLSGVVFGGGTKLTVLG"
–,7,7,"human TACI (immunoglobulin fusion) (Fc fusion, part only; not given: immunoglobulin part, UniProt O14836 30-110, looked up, part only) chain, part: AMRSCPEEQYWDPLLGTCMSCKTICNHQSQRTCAAFCRSLSCRKEQGKFYDHLLRDCISCASICGQHPKQCAYFCENKLRS"
